According to PMC7116788 (Nature microbiology, 2021):
Read-outs that look alike come from different tables or passages of the source.

Legend:
[1] = target: the molecule itself; assay: cryo-EM structure
[2] = target: the molecule itself; assay: cryo-EM structure; remark: listed apart in the source

B1: GldL (Flavobacterium johnsoniae) (natural protein)
chain: MALLSKKVMNFAYGMGAAVVIVGALFKITHFEIGPLTGTVMLSIGLLTEALIFALSAFEPVEDELDWTLVYPELANGQARKKEAKAETATDAQGLLSQKLDAMLKEAKVDGELMASLGNSIKNFEGAAKAISPTVDSIAGQKKYAEEMSMAAAQMESLNSLYKVQLESASRNAQANSEIAENAAKLKEQMASMTANIASLNSVYGGMLSAMSNKG
In the case of B1, the “stoichiometry N” value [1] is reported as 5.

B2: PorM (Porphyromonas gingivalis ATCC 33277) (natural protein, UniProt B2RLE8 1-516, looked up)
chain: MAVGSNGNANRQKMINLMYLVFIAMMALNVSSEVLDGFDKVDKSLTSSIDGSDKRNNLVLSELNTAYRTNPEKVKVWYERSLVLQKEADSLCTFIDDLKLAIARESDGKDAKVNDIRRKDNLDASSVVMLNPINGKGSTLRKEVDKFRELVATLMTDKAKLKLIEQALNTESGTKGKSWESSLFENMPTVAAITLLTKLQSDVRYAQGEVLADLVKSVDVGDYRVNSITAQVIPQSQIVMSGDTYKANIVLSSVDTTQRPDVFVNGKLLSPENMGLFTATAGAPGTYPVKGYIEMMGNDGVKIRRDFESEYFVTEPMASVAPTMMNVLYAGIDNPINIAVPGVAQQNVSATINNGTLTRRGNLWIARPTKVGSEAIISVTAQSGGRTIQMAKTTLRVRALPDPLPYIEYKDVQGNTKRFKGGRLGKREILAAGGIKAALDDDLLEVNYTVVKFQLVFYDSMGNSIPEVSDGASFSERQKRQIQNLGKGKRFYVTEVIARGPDGIERKIPAIEVIVN
With B2 the “stoichiometry N” value [2] was 2.

B3: PorL (Porphyromonas gingivalis ATCC 33277) (natural protein, UniProt B2RLE9 1-309, looked up)
chain: MGHYRRYKNILEMYLASHKGRRLLNIVYSWGAAVVILGALFKLLHLPMGNEMLFVGMITEFLVFFISGFEKPAMEYHWEEVFPELDSKNPMDRREMEQRREYLREKAKEAAAYAERPSSVRLASASLGTQPQEQPKPATPFQSQLTGILPEEQIQRLSEGIDKLAEAGEQLARIGRTAAAMTESYEQMQADQEGLRLNSQSYIQQMESLSRNISGLNTIYEIQLKGISSQIDTIDRINRGLAHIRDMYDNSVIDSSSFRNENERMARQLTQLNEVYARLLQALTTNVGLPGMPGNFGASNPSSSGSSPL
B3: binds [2].
